This series concerns the target T1, Siglec-5 (Sialic acid-binding Ig-like lectin 5) (human (NB4 AML cell line)) (UniProt O15389).
T1 sequence: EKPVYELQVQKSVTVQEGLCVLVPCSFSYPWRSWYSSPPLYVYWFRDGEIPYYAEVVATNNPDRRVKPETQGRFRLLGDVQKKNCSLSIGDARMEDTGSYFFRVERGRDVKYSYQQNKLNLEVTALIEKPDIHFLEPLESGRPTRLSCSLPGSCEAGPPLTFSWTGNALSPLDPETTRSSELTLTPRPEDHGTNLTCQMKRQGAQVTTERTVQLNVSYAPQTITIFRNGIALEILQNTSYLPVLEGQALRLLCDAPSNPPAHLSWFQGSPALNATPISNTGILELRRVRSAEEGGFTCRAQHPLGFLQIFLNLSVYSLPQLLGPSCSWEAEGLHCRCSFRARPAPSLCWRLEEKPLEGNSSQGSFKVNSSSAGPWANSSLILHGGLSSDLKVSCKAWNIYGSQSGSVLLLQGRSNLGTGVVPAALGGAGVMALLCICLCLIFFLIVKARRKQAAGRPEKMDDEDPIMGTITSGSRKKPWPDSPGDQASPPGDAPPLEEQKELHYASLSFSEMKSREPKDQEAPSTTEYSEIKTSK
The series is described as follows: flow cytometry on NB4 cells. The conditions noted are these: PBS with 4.5 g/L glucose, 5 mM MgCl2, 0.1 mg/ml yeast tRNA, 1 mg/ml BSA (0.1% NaN3 for flow cytometry), on ice 30 min; pH not stated; JH6 and JH19 (whole-cell …). In general terms: Flow cytometry measures light scatter and fluorescence of single cells or particles in a stream.

“GACGCTTACTCAGGTGTGACTCGAAGGGGTTGGGTGGGTTTATACAAATTAATTAATATTGTATGGTATATTTCGAAGGACGCAGATGAAGTCTC [K19]”: the Kd (usually the free concentration of one partner at which half of the binding sites on the other are occupied at equilibrium, for simple one-to-one binding) was found to be 12.4 nM.

The values above are taken from publication PMC3895837.
